Key:
hen egg-white lysozyme [1] = target: T1, hen egg-white lysozyme (hen, UniProt P00698 19-147); test: from Kd in solution: fluorescence titration of conjugate against competition Biacore of H4S(wt)
T1 construct: also called HEL

hen egg-white lysozyme [2] = target: T1, hen egg-white lysozyme; test: fluorescence titration in solution, 0.3 µM conjugate, buffer C, 25 °C
[3] = target: T2, hen egg-white lysozyme (HEL) (Gallus gallus, UniProt P00698); test: Titration of H4S conjugates with HEL, monitored by fluorescence; assay type: binding; details: for ΔΔG: decrease of free energy of interaction with HEL on fluorophore conjugation, from Kd of conjugate versus H4S(wt); for sr: relative sensitivity of the conjugate at a fixed concentration of 0.3 µM (Equation 8), HEL; for ΔF∞/F0: maximal variation of F at λmax on HEL binding
T2 construct: hen egg-white lysozyme (HEL); purchased Sigma
Experimental: The binding and fluorescence experiments were performed at equilibrium as if the preparations of conjugates were homogeneous, i. e. as if yc = 1. The binding reactions were conducted by incubating 0.3 µM of conjugate with variable concentrations of the HEL or BSA antigens in a volume of 1 mL, for 30 min in the dark with gentle shaking. The reactions were carried out in Buffer C or in a mixture v:(1-v) of calf serum and Buffer C as indicated in example 2.
The conjugate (or biosensor) B and antigen A form a 1:1 complex B:A according to the reaction: B + A↔B:A [formula] At equilibrium, the concentration [B:A] of the complex is given by the equation: [B:A] = 0.5{[B]0+[A]0+Kd-(((([B]0+[A]0+Kd))^2-4[B]0[A]0))^(1/2)} [formula] where Kd is the dissociation constant, and [A]0 and [B]0 are the total concentrations of A and B, respectively (Renard et al., 2003).
The fluorescence of the IANBD conjugates was excited at 485 nm (5 nm slit width) and its intensity measured between 520 and 550 nm (20 nm slit width) with a FP-6300 spectrofluorometer (Jasco). The signal of HEL alone or BSA alone was measured in an independent experiment and subtracted from the global signal of the binding mixture to give the specific fluorescence intensity F of each conjugate. The intensity F at a given value of [A]0 satisfies the following equation: (F-F0)/F0 = ΔF/F0 = (ΔF∞/F0)([B:A]/[B]0) [formula] where F0 and F∞ are the values of F at zero and saturating concentrations of A (Renard et al., 2003). The values of ΔF∞/F0, Kd, and [B]0 could be determined by fitting Equation 5, in which [B:A] is given by Equation 4, to the experimental values of ΔF/F0, measured in a titration experiment. The fittings were performed with the Kaleidagraph software (Synergy Software).
The sensitivity s and relative sensitivity sr of a conjugate can be defined by the following equations for the low values of [A]0, i. e. in the initial part of the titration curve: ΔF = s[A]0 [formula] ΔF/F0 = sr [A]0 /[B]0 [formula] s and sr can be expressed as functions of characteristic parameters of the conjugate: sr = (ΔF∞/F0)([B]0/(Kd+[B]0)) [formula] s = fb sr [formula] where fb = F0/[B]0 is the molar fluorescence of the free conjugate (Renard and Bedouelle, 2004). Equation 8 implies that sr is maximal when the biosensor B is present at a concentration [B]0 >> Kd, as every newly titrated molecule A then forms a complex. Equation 6 implies that the lower limit of detection δ[A]0 of the conjugate is linked to the lower limit of measurement of the spectrofluorometer δF by the following equations: δ[A]0 = s^-1 δF = sr^-1 [B]0 (δF/F0) [formula]

[4] = 0.3 µM conjugate, buffer C, 25 °C, value ± SE of fitting

Molecule	ΔΔG [3] [kcal/mol]	sr ([3]; buffer C)	other results
H4S conjugate, IANBD fluorophore coupled at position Asn9 (designed binder, Cys at position 9 (H4S numbering) coupled to IANBD ester (ANBD)) MRGSHHHHHHGSVKVKFFWCGEEKEVDTSKIVWVKRAGKSVLFIYDDNGKNGYGDVTEKDAPKELLDMLARAEREKKLN			ΔΔG (conjugate against H4S(wt)) (hen egg-white lysozyme [1]): ≤ 0.5 kcal/mol; Kd (hen egg-white lysozyme [2]): 7 nM; ΔF∞/F0 (maximal relative variation of fluorescence on HEL binding) (hen egg-white lysozyme [2]): 0.52
Asn9: H4S conjugate: residue Asn9 changed into cysteine and coupled with the IANBD fluorophore (conjugate) MRGSHHHHHHGSVKVKFFWCGEEKEVDTSKIVWVKRAGKSVLFIYDDNGKNGYGDVTEKDAPKELLDMLARAEREKKLN	≤ 0.5		
Leu31: H4S conjugate: residue Leu31 changed into cysteine and coupled with the IANBD fluorophore (conjugate) MRGSHHHHHHGSVKVKFFWNGEEKEVDTSKIVWVKRAGKSVCFIYDDNGKNGYGDVTEKDAPKELLDMLARAEREKKLN	≥ 1.5	0.17	
Ile33: H4S conjugate: residue Ile33 changed into cysteine and coupled with the IANBD fluorophore (conjugate) MRGSHHHHHHGSVKVKFFWNGEEKEVDTSKIVWVKRAGKSVLFCYDDNGKNGYGDVTEKDAPKELLDMLARAEREKKLN	≥ 1.5	nm	Kd ([3]; fluorescence titration with HEL, 0.3 µM conjugate, buffer C, 25 °C, value ± SE of fitting): nM; ΔF∞/F0 [3, 4]: nm
Lys39: H4S conjugate: residue Lys39 changed into cysteine and coupled with IANBD (SEQ ID NO: 63) (conjugate, IANBD fluorophore on Cys39) MRGSHHHHHHGSVKVKFFWNGEEKEVDTSKIVWVKRAGKSVLFIYDDNGCNGYGDVTEKDAPKELLDMLARAEREKKLN		1.16	
Phe7: H4S conjugate: residue Phe7 changed into cysteine and coupled with the IANBD fluorophore (conjugate) MRGSHHHHHHGSVKVKFCWNGEEKEVDTSKIVWVKRAGKSVLFIYDDNGKNGYGDVTEKDAPKELLDMLARAEREKKLN	≤ 0.5	0.22	
Asp44: H4S conjugate: residue Asp44 changed into cysteine and coupled with the IANBD fluorophore (conjugate) MRGSHHHHHHGSVKVKFFWNGEEKEVDTSKIVWVKRAGKSVLFIYDDNGKNGYGCVTEKDAPKELLDMLARAEREKKLN	≥ 1.5	0.49	
Ser29: H4S conjugate: residue Ser29 changed into cysteine and coupled with the IANBD fluorophore (conjugate) MRGSHHHHHHGSVKVKFFWNGEEKEVDTSKIVWVKRAGKCVLFIYDDNGKNGYGDVTEKDAPKELLDMLARAEREKKLN	≤ 0.5		
Val21: H4S conjugate: residue Val21 changed into cysteine and coupled with IANBD (SEQ ID NO: 60) (conjugate, IANBD fluorophore on Cys21) MRGSHHHHHHGSVKVKFFWNGEEKEVDTSKICWVKRAGKSVLFIYDDNGKNGYGDVTEKDAPKELLDMLARAEREKKLN		3.17	
Lys28: H4S conjugate: residue Lys28 changed into cysteine and coupled with the IANBD fluorophore (conjugate) MRGSHHHHHHGSVKVKFFWNGEEKEVDTSKIVWVKRAGCSVLFIYDDNGKNGYGDVTEKDAPKELLDMLARAEREKKLN	≤ 0.5	0.24	
Trp8: H4S conjugate: residue Trp8 changed into cysteine and coupled with IANBD (SEQ ID NO: 59) (conjugate, IANBD fluorophore on Cys8) MRGSHHHHHHGSVKVKFFCNGEEKEVDTSKIVWVKRAGKSVLFIYDDNGKNGYGDVTEKDAPKELLDMLARAEREKKLN		0.90	
Asn40: H4S conjugate: residue Asn40 changed into cysteine and coupled with the IANBD fluorophore (conjugate) MRGSHHHHHHGSVKVKFFWNGEEKEVDTSKIVWVKRAGKSVLFIYDDNGKCGYGDVTEKDAPKELLDMLARAEREKKLN	≥ 1.5	0.07	
Trp22: H4S conjugate: residue Trp22 changed into cysteine and coupled with the IANBD fluorophore (conjugate) MRGSHHHHHHGSVKVKFFWNGEEKEVDTSKIVCVKRAGKSVLFIYDDNGKNGYGDVTEKDAPKELLDMLARAEREKKLN	≥ 1.5	0.06	ΔF∞/F0 [3, 4]: 0.3±0.1
Thr46: H4S conjugate: residue Thr46 changed into cysteine and coupled with the IANBD fluorophore (conjugate) MRGSHHHHHHGSVKVKFFWNGEEKEVDTSKIVWVKRAGKSVLFIYDDNGKNGYGDVCEKDAPKELLDMLARAEREKKLN	≤ 0.5	0.27	
Tyr42: H4S conjugate: residue Tyr42 changed into cysteine and coupled with the IANBD fluorophore (conjugate) MRGSHHHHHHGSVKVKFFWNGEEKEVDTSKIVWVKRAGKSVLFIYDDNGKNGCGDVTEKDAPKELLDMLARAEREKKLN	≥ 1.5	0.72	
H4S conjugate, IANBD fluorophore coupled at position Leu31 (designed binder, Cys at position 31 (H4S numbering) coupled to IANBD ester (ANBD)) MRGSHHHHHHGSVKVKFFWNGEEKEVDTSKIVWVKRAGKSVCFIYDDNGKNGYGDVTEKDAPKELLDMLARAEREKKLN			ΔΔG (conjugate against H4S(wt)) (hen egg-white lysozyme [1]): ≥ 1.5 kcal/mol; Kd (hen egg-white lysozyme [2]): 8360 nM; ΔF∞/F0 (maximal relative variation of fluorescence on HEL binding) (hen egg-white lysozyme [2]): 4.9
H4S conjugate, IANBD fluorophore coupled at position Asp44 (designed binder, Cys at position 44 (H4S numbering) coupled to IANBD ester (ANBD)) MRGSHHHHHHGSVKVKFFWNGEEKEVDTSKIVWVKRAGKSVLFIYDDNGKNGYGCVTEKDAPKELLDMLARAEREKKLN			ΔΔG (conjugate against H4S(wt)) (hen egg-white lysozyme [1]): ≥ 1.5 kcal/mol; Kd (hen egg-white lysozyme [2]): 623 nM; ΔF∞/F0 (maximal relative variation of fluorescence on HEL binding) (hen egg-white lysozyme [2]): 1.5
H4S conjugate, IANBD fluorophore coupled at position Asn40 (designed binder, Cys at position 40 (H4S numbering) coupled to IANBD ester (ANBD)) MRGSHHHHHHGSVKVKFFWNGEEKEVDTSKIVWVKRAGKSVLFIYDDNGKCGYGDVTEKDAPKELLDMLARAEREKKLN			ΔΔG (conjugate against H4S(wt)) (hen egg-white lysozyme [1]): ≥ 1.5 kcal/mol; Kd (hen egg-white lysozyme [2]): 2000 nM; ΔF∞/F0 (maximal relative variation of fluorescence on HEL binding) (hen egg-white lysozyme [2]): 0.57

— patent EP2469278A1, “Reagentless fluorescent biosensors from nanofitins, rational design methods to create reagentless fluorescent biosensors and methods of their use” (Institut Pasteur, priority 2010, dated 2012)
